Laboratory results from patent US20250163145A1 (SHIONOGI, published 2025).
Where no end group is shown, it is not given here.

T1: epitope peptide Cys-CE3C long (also: biotin label, site not given here)
T1 peptide: CSVNVDKQPKYEYSL


Molecular target: T1, epitope peptide Cys-CE3C long
Experiment: ELISA, supernatant IgG on anti-human IgG plate, biotin-peptide + streptavidin-HRP; titer per unit IgG
Experimental: The amount of IgG in the supernatant was determined by the following method. To evaluate the amount of IgG in the supernatant, the culture supernatant was added to an anti-human IgG antibody (manufactured by Jackson) immobilized plate, after reacting at room temperature for 3 hours, washed twice with ELISA wash buffer, and HRP-labeled anti-human IgG antibody (manufactured by Jackson) was reacted at 4° C. overnight. After washing twice with ELISA wash buffer and developing color by adding TMB-Substrate Chromogen (manufactured by Thermo Fisher Scientific), the reaction was stopped with an equal volume of 0.5N sulfuric acid, and the absorbance at 450 nm was measured to calculate (A) the dilution factor of the culture supernatant at which the OD was 1.0.
The titer of IgG in the supernatant against the epitope peptide was determined by the following method. In order to evaluate the titer of IgG in the supernatant against epitope peptides, the culture supernatant was added to an anti-human IgG antibody (manufactured by Jackson) immobilized plate, reacted for 3 hours at room temperature, and then washed twice with ELISA wash buffer, and a biotin-labeled epitope peptide (Cys-CE3C long: SEQ ID NO: 13) and Streptavidin-HRP (manufactured by PIERCE) were added and reacted overnight at 4° C. After washing twice with ELISA wash buffer and developing color by adding TMB-Substrate Chromogen (manufactured by Thermo Fisher Scientific), the reaction was stopped with an equal volume of 0.5N sulfuric acid, the absorbance at 450 nm was measured to calculate (B) the dilution ratio of the culture supernatant at which the OD was 1.0.
The titer (ratio) against the epitope peptide (Cys-CE3C long: SEQ ID NO: 13) per unit IgG amount was calculated as (B)/(A).

Binder	(B)/(A) titer (ratio) against the epitope peptide per unit IgG amount
humanized 15H11 CDR graft IGKV1-39 / IGHV1-2 (R94P) (antibody, human IgG4 S228P, kappa, V domains shown, hIgG4Pro/hIgK) VH: QVQLVQSGAEVKKPGASVKVSCKASGYTFTDYNMHWVRQAPGQGLEWMGRINPKNGVINSNEKFKDRVTMTRDTSISTAYMELSRLRSDDTAVYYCAPSYYGGNTDAYWGQGTLVTVSS VL: DIQMTQSPSSLSASVGDRVTITCRASESVDNYGISFMNWYQQKPGKAPKLLIYAASSQGSGVPSRFSGSGSGTDFTLTISSLQPEDFATYYCQQSKEFPWTFGGGTKVEIKR	0.14
humanized 15H11 CDR graft IGKV1-39 / IGHV7-4-1 (R94P) (antibody, human IgG4 S228P, kappa, V domains shown, hIgG4Pro/hIgK) VH: QVQLVQSGSELKKPGASVKVSCKASGYTFTDYNMHWVRQAPGQGLEWMGRINPKNGVINSNEKFKDRFVFSLDTSVSTAYLQISSLKAEDTAVYYCAPSYYGGNTDAYWGQGTLVTVSS VL: DIQMTQSPSSLSASVGDRVTITCRASESVDNYGISFMNWYQQKPGKAPKLLIYAASSQGSGVPSRFSGSGSGTDFTLTISSLQPEDFATYYCQQSKEFPWTFGGGTKVEIKR	0.16
humanized 15H11 CDR graft IGKV3-11 / IGHV1-2 (R94P) (antibody, human IgG4 S228P, kappa, V domains shown, hIgG4Pro/hIgK) VH: QVQLVQSGAEVKKPGASVKVSCKASGYTFTDYNMHWVRQAPGQGLEWMGRINPKNGVINSNEKFKDRVTMTRDTSISTAYMELSRLRSDDTAVYYCAPSYYGGNTDAYWGQGTLVTVSS VL: EIVLTQSPATLSLSPGERATLSCRASESVDNYGISFMNWYQQKPGQAPRLLIYAASSQGSGIPARFSGSGSGTDFTLTISSLEPEDFAVYYCQQSKEFPWTFGGGTKVEIKR	0.15
humanized 15H11 CDR graft IGKV1-39 / IGHV1-3 (R94P) (antibody, human IgG4 S228P, kappa, V domains shown, hIgG4Pro/hIgK) VH: QVQLVQSGAEVKKPGASVKVSCKASGYTFTDYNMHWVRQAPGQRLEWMGRINPKNGVINSNEKFKDRVTITRDTSASTAYMELSSLRSEDTAVYYCAPSYYGGNTDAYWGQGTLVTVSS VL: DIQMTQSPSSLSASVGDRVTITCRASESVDNYGISFMNWYQQKPGKAPKLLIYAASSQGSGVPSRFSGSGSGTDFTLTISSLQPEDFATYYCQQSKEFPWTFGGGTKVEIKR	0.12
humanized 15H11 CDR graft IGKV3-20 / IGHV1-2 (antibody, human IgG4 S228P, kappa, V domains shown, hIgG4Pro/hIgK) VH: QVQLVQSGAEVKKPGASVKVSCKASGYTFTDYNMHWVRQAPGQGLEWMGRINPKNGVINSNEKFKDRVTMTRDTSISTAYMELSRLRSDDTAVYYCARSYYGGNTDAYWGQGTLVTVSS VL: EIVLTQSPATLSLSPGERATLSCRASESVDNYGISFMNWYQQKPGQAPRLLIYAASSQGSGIPARFSGSGSGTDFTLTISRLEPEDFAVYYCQQSKEFPWTFGGGTKVEIKR	0.04
humanized 15H11 CDR graft IGKV1-39 / IGHV1-18 (R94P) (antibody, human IgG4 S228P, kappa, V domains shown, hIgG4Pro/hIgK) VH: QVQLVQSGAEVKKPGASVKVSCKASGYTFTDYNMHWVRQAPGQGLEWMGRINPKNGVINSNEKFKDRVTMTTDTSTSTAYMELRSLRSDDTAVYYCAPSYYGGNTDAYWGQGTLVTVSS VL: DIQMTQSPSSLSASVGDRVTITCRASESVDNYGISFMNWYQQKPGKAPKLLIYAASSQGSGVPSRFSGSGSGTDFTLTISSLQPEDFATYYCQQSKEFPWTFGGGTKVEIKR	0.13
humanized 15H11 CDR graft IGKV1-39 / IGHV1-2 (antibody, human IgG4 S228P, kappa, V domains shown, hIgG4Pro/hIgK) VH: QVQLVQSGAEVKKPGASVKVSCKASGYTFTDYNMHWVRQAPGQGLEWMGRINPKNGVINSNEKFKDRVTMTRDTSISTAYMELSRLRSDDTAVYYCARSYYGGNTDAYWGQGTLVTVSS VL: DIQMTQSPSSLSASVGDRVTITCRASESVDNYGISFMNWYQQKPGKAPKLLIYAASSQGSGVPSRFSGSGSGTDFTLTISSLQPEDFATYYCQQSKEFPWTFGGGTKVEIKR	0.03
humanized 15H11 CDR graft IGKV1-39 / IGHV1-46 (R94P) (antibody, human IgG4 S228P, kappa, V domains shown, hIgG4Pro/hIgK) VH: QVQLVQSGAEVKKPGASVKVSCKASGYTFTDYNMHWVRQAPGQGLEWMGRINPKNGVINSNEKFKDRVTMTRDTSTSTVYMELSSLRSEDTAVYYCAPSYYGGNTDAYWGQGTLVTVSS VL: DIQMTQSPSSLSASVGDRVTITCRASESVDNYGISFMNWYQQKPGKAPKLLIYAASSQGSGVPSRFSGSGSGTDFTLTISSLQPEDFATYYCQQSKEFPWTFGGGTKVEIKR	0.09
humanized 15H11 CDR graft IGKV3-11 / IGHV1-3 (R94P) (antibody, human IgG4 S228P, kappa, V domains shown, hIgG4Pro/hIgK) VH: QVQLVQSGAEVKKPGASVKVSCKASGYTFTDYNMHWVRQAPGQRLEWMGRINPKNGVINSNEKFKDRVTITRDTSASTAYMELSSLRSEDTAVYYCAPSYYGGNTDAYWGQGTLVTVSS VL: EIVLTQSPATLSLSPGERATLSCRASESVDNYGISFMNWYQQKPGQAPRLLIYAASSQGSGIPARFSGSGSGTDFTLTISSLEPEDFAVYYCQQSKEFPWTFGGGTKVEIKR	0.12
humanized 15H11 CDR graft IGKV7-3 / IGHV7-4-1 (R94P) (antibody, human IgG4 S228P, kappa, V domains shown, hIgG4Pro/hIgK) VH: QVQLVQSGSELKKPGASVKVSCKASGYTFTDYNMHWVRQAPGQGLEWMGRINPKNGVINSNEKFKDRFVFSLDTSVSTAYLQISSLKAEDTAVYYCAPSYYGGNTDAYWGQGTLVTVSS VL: DIVLTQSPASLAVSPGQRATITCRASESVDNYGISFMNWYQQKPGQPPKLLIYAASSQGSGVPARFSGSGSGTDFTLTINPVEANDTANYYCQQSKEFPWTFGGGTKVEIKR	0.26

The remaining lines, values ahead:

(B)/(A) titer (ratio) against the epitope peptide per unit IgG amount	Binder
0.12	humanized 15H11 CDR graft IGKV3-20 / IGHV1-3 (R94P) (antibody, human IgG4 S228P, kappa, V domains shown, hIgG4Pro/hIgK) VH: QVQLVQSGAEVKKPGASVKVSCKASGYTFTDYNMHWVRQAPGQRLEWMGRINPKNGVINSNEKFKDRVTITRDTSASTAYMELSSLRSEDTAVYYCAPSYYGGNTDAYWGQGTLVTVSS VL: EIVLTQSPATLSLSPGERATLSCRASESVDNYGISFMNWYQQKPGQAPRLLIYAASSQGSGIPARFSGSGSGTDFTLTISRLEPEDFAVYYCQQSKEFPWTFGGGTKVEIKR
0.09	humanized 15H11 CDR graft IGKV3-20 / IGHV1-46 (R94P) (antibody, human IgG4 S228P, kappa, V domains shown, hIgG4Pro/hIgK) VH: QVQLVQSGAEVKKPGASVKVSCKASGYTFTDYNMHWVRQAPGQGLEWMGRINPKNGVINSNEKFKDRVTMTRDTSTSTVYMELSSLRSEDTAVYYCAPSYYGGNTDAYWGQGTLVTVSS VL: EIVLTQSPATLSLSPGERATLSCRASESVDNYGISFMNWYQQKPGQAPRLLIYAASSQGSGIPARFSGSGSGTDFTLTISRLEPEDFAVYYCQQSKEFPWTFGGGTKVEIKR
0.12	humanized 15H11 CDR graft IGKV3-11 / IGHV1-46 (R94P) (antibody, human IgG4 S228P, kappa, V domains shown, hIgG4Pro/hIgK) VH: QVQLVQSGAEVKKPGASVKVSCKASGYTFTDYNMHWVRQAPGQGLEWMGRINPKNGVINSNEKFKDRVTMTRDTSTSTVYMELSSLRSEDTAVYYCAPSYYGGNTDAYWGQGTLVTVSS VL: EIVLTQSPATLSLSPGERATLSCRASESVDNYGISFMNWYQQKPGQAPRLLIYAASSQGSGIPARFSGSGSGTDFTLTISSLEPEDFAVYYCQQSKEFPWTFGGGTKVEIKR
0.05	humanized 15H11 CDR graft IGKV3-11 / IGHV1-2 (antibody, human IgG4 S228P, kappa, V domains shown, hIgG4Pro/hIgK) VH: QVQLVQSGAEVKKPGASVKVSCKASGYTFTDYNMHWVRQAPGQGLEWMGRINPKNGVINSNEKFKDRVTMTRDTSISTAYMELSRLRSDDTAVYYCARSYYGGNTDAYWGQGTLVTVSS VL: EIVLTQSPATLSLSPGERATLSCRASESVDNYGISFMNWYQQKPGQAPRLLIYAASSQGSGIPARFSGSGSGTDFTLTISSLEPEDFAVYYCQQSKEFPWTFGGGTKVEIKR
0.15	humanized 15H11 CDR graft IGKV3-11 / IGHV1-18 (R94P) (antibody, human IgG4 S228P, kappa, V domains shown, hIgG4Pro/hIgK) VH: QVQLVQSGAEVKKPGASVKVSCKASGYTFTDYNMHWVRQAPGQGLEWMGRINPKNGVINSNEKFKDRVTMTTDTSTSTAYMELRSLRSDDTAVYYCAPSYYGGNTDAYWGQGTLVTVSS VL: EIVLTQSPATLSLSPGERATLSCRASESVDNYGISFMNWYQQKPGQAPRLLIYAASSQGSGIPARFSGSGSGTDFTLTISSLEPEDFAVYYCQQSKEFPWTFGGGTKVEIKR
0.12	humanized 15H11 CDR graft IGKV3-20 / IGHV1-2 (R94P) (antibody, human IgG4 S228P, kappa, V domains shown, hIgG4Pro/hIgK) VH: QVQLVQSGAEVKKPGASVKVSCKASGYTFTDYNMHWVRQAPGQGLEWMGRINPKNGVINSNEKFKDRVTMTRDTSISTAYMELSRLRSDDTAVYYCAPSYYGGNTDAYWGQGTLVTVSS VL: EIVLTQSPATLSLSPGERATLSCRASESVDNYGISFMNWYQQKPGQAPRLLIYAASSQGSGIPARFSGSGSGTDFTLTISRLEPEDFAVYYCQQSKEFPWTFGGGTKVEIKR
0.13	humanized 15H11 CDR graft IGKV3-20 / IGHV1-18 (R94P) (antibody, human IgG4 S228P, kappa, V domains shown, hIgG4Pro/hIgK) VH: QVQLVQSGAEVKKPGASVKVSCKASGYTFTDYNMHWVRQAPGQGLEWMGRINPKNGVINSNEKFKDRVTMTTDTSTSTAYMELRSLRSDDTAVYYCAPSYYGGNTDAYWGQGTLVTVSS VL: EIVLTQSPATLSLSPGERATLSCRASESVDNYGISFMNWYQQKPGQAPRLLIYAASSQGSGIPARFSGSGSGTDFTLTISRLEPEDFAVYYCQQSKEFPWTFGGGTKVEIKR
0.18	humanized 15H11 CDR graft IGKV3-11 / IGHV7-4-1 (R94P) (antibody, human IgG4 S228P, kappa, V domains shown, hIgG4Pro/hIgK) VH: QVQLVQSGSELKKPGASVKVSCKASGYTFTDYNMHWVRQAPGQGLEWMGRINPKNGVINSNEKFKDRFVFSLDTSVSTAYLQISSLKAEDTAVYYCAPSYYGGNTDAYWGQGTLVTVSS VL: EIVLTQSPATLSLSPGERATLSCRASESVDNYGISFMNWYQQKPGQAPRLLIYAASSQGSGIPARFSGSGSGTDFTLTISSLEPEDFAVYYCQQSKEFPWTFGGGTKVEIKR
